Patent publication US20100062984A1, “FGF-23 POLYPEPTIDES” (priority 2007, published 2010)
Where “and” joins values, the source holds several entries; their conditions need not be identical. Equal entries are not always repeated.

B1: FGF-23(25-251): full-length recombinant human FGF-23(25-251) polypeptide expressed in E. coli, SEQ ID NO: 1 (protein, listed as Homo sapiens)
chain: YPNASPLLGSSWGGLIHLYTATARNSYHLQIHKNGHVDGAPHQTIYSALMIRSEDAGFVVITGVMSRRYLCMDFRGNIFGSHYFDPENCRFQHQTLENGYDVYHSPQYHFLVSLGRAKRAFLPGMNPPPYSQFLSRRNEIPLIHFNTPIPRRHTRSAEDDSERDPLNVLKPRARMTPAPASCSQELPSAEDNSPMASDPLGVVRGGRVNTHAGGTGPEGCRPFAKFI
B2: FGF-23(184-251): synthetic FGF-23 fragment, residues 184-251, SEQ ID NO: 4 (peptide, listed as Homo sapiens)
chain: DSERDPLNVLKPRARMTPAPASCSQELPSAEDNSPMASDPLGVVRGGRVNTHAGGTGPEGCRPFAKFI
B3: FGF-23(176-251): synthetic FGF-23 fragment, residues 176-251, SEQ ID NO: 2 (peptide, listed as Homo sapiens)
chain: RHTRSAEDDSERDPLNVLKPRARMTPAPASCSQELPSAEDNSPMASDPLGVVRGGRVNTHAGGTGPEGCRPFAKFI
B4: FGF-23(180-251): synthetic FGF-23 fragment, residues 180-251, SEQ ID NO: 3 (peptide, listed as Homo sapiens)
chain: SAEDDSERDPLNVLKPRARMTPAPASCSQELPSAEDNSPMASDPLGVVRGGRVNTHAGGTGPEGCRPFAKFI

Legend:
[1] = tested on: normal rats; assay: Acute intravenous infusion of equimolar FGF-23 polypeptides in anesthetized rats, renal clearance; type: in vivo, rat; settings: for FENa (fractional excretion of sodium), control clearance / FEPi (fractional excretion of phosphate), control clearance: C = control clearance before infusion; for FENa (fractional excretion of sodium), control clearance / FEPi (fractional excretion of phosphate), control clearance / FENa (fractional excretion of sodium), experimental clearance / FEPi (fractional excretion of phosphate), experimental clearance: mean ± SE; for FENa (fractional excretion of sodium), experimental clearance / FEPi (fractional excretion of phosphate), experimental clearance: E = experimental clearance, i.v. infusion 1.24 nmol/kg/hour
Method: Male Sprague Dawley rats weighing 300 g were purchased from Harlan Sprague Dawley Inc. (Madison Wis.). They were fed a standard rodent diet containing 0.7% phosphate and 0.5% calcium. All animals were fasted overnight prior to the experiment. On the day of the experiment, rats were anesthetized with an intraperitoneal injection of 100-150 mg/kg body weight of 5-sec-butyl-ethyl-2-thiobarbituricacid (Inactin, Byk Gulden Konstanz, Hamburg, Germany). The rats were placed on a heated table to maintain body temperature between 36-38° C. After a tracheostomy, a PE 50 catheter was placed in the left carotid artery to monitor mean arterial blood pressure (MAP) and to collect blood samples. Catheters were also placed in the left and right jugular veins for infusions. A solution containing 2% inulin in 0.9% NaCl plus 4.5% BSA was infused at a rate of 1.2 mL/hour in one catheter, and 0.9% NaCl was infused in the other catheter at a rate of 1.2 mL/hour. A catheter (PE 90) was placed in the bladder for urine collection. Acute infusion studies were performed using the following seven different groups of animals.
Group 1: Vehicle Time control (n=8). After a ninety-minute recovery period, one […] urine sample was taken (C1) and a blood sample was taken. One hour later a second 60-minute clearance was taken (C2).
Group 2: Effect of acute infusion of full length FGF-23 polypeptide (1.24 nmol/kg/hour, n=8). This protocol is identical to group 1 except that after the control collections, full-length recombinant FGF-23 polypeptide was added to the 0.9% saline infusion to deliver 1.24 nmol/kg/hour of full length FGF-23 polypeptide. After one hour of infusion, a sixty-minute clearance was taken.
Group 3: Effect of acute infusion of FGF-23(176-251) polypeptide (1.24 nmol/kg/hour, n=8). This protocol is identical to group 2 except for the sequence of the infused polypeptide.
Group 4: Effect of acute infusion of FGF-23(180-251) polypeptide (1.24 nmol/kg/hour, n=8). This protocol is identical to group 2 except for the sequence of the infused polypeptide.
Group 5: Effect of infusion of FGF-23(184-251) polypeptide (1.24 nmol/kg/hour, n=8). This protocol is identical to group 2 except for the sequence of the infused polypeptide.
Group 6: Effect of infusion of FGF-23(206-251) polypeptide (1.24 nmol/kg/hour, n=6). This protocol is identical to group 2 except for the sequence of the infused polypeptide.
Group 7: Effect of infusion of FGF-23(180-205) polypeptide (1.24 nmol/kg/hour, n=6). This protocol is identical to group 2 except for the sequence of the infused polypeptide.
(§1) Plasma and urine phosphate concentrations were determined using the method of Chen (Chen et al., Anal Chem., 28:1756-1758 (1956)). Inulin concentrations in plasma and urine were determined using the anthrone method (Führ et al., Klin. Wochenschr., 33.:729-730 (1955)). Sodium concentrations in urine were determined by ion selective electrode (EasyLyte Plus Analyzer, Medica Corp., Bedford, Mass.). Calcium concentrations were measured using atomic absorption spectrometry (Kumar et al., Biochemistry, 15:2420-2423 (1976)) with a Perkin Elmer Model 3300 Atomic Absorption Spectrometer (Perkin Elmer, Boston, Mass.). Serum 1α,25(OH)2D concentrations were measured using an RIA kit (Diasorin, Stillwater, Minn.).
Statistically significant differences between groups were evaluated by Student's t-test for comparison between two groups or by one-way analysis of variance (ANOVA) followed by Tukey's test for multiple comparisons. All values were expressed as mean±SE. A p value less than 0.05 was considered to be statistically significant.

[2] = tested on: Fgf-23−/− mice; assay: Intraperitoneal injection into Fgf-23−/− mice, serum phosphate; type: in vivo, mouse
Method: To further examine the in vivo phosphaturic activity of the smallest FGF-23 fragment, 0.2 nmoles of FGF-23(180-205) polypeptide were injected twice intraperitoneally into Fgf-23^−/− mice. FGF-23 R176Q polypeptide was similarly injected into the mutant mice as a positive control, and saline was injected as a vehicle control. Fgf-23^−/− animals were generated as reported elsewhere (Sitara et al., Matrix Biol., 23:421-432 (2004)). To determine the in vivo effects of the C-terminal fragment FGF23(180-205) in the absence of endogenous FGF-23 activity, equimolar amounts (0.2 nmoles) of FGF-23 R176Q polypeptide, FGF-23(180-205) polypeptide, and vehicle (saline) were injected twice intraperitoneally into Fgf-23^−/− mice at 0 and 8 hours. Blood was obtained by tail bleeding or cheek pouch puncture of 3- to 6-week-old Fgf-23^−/− animals, 8 hours after the second injection (at 16 hours). Serum levels of phosphate were determined in pre- and post-injection mice using the Stanbio LiquiUV kit (Stanbio Laboratory, Boerne, Tex.).

[3] = tested on: NaPi IIa-V5; assay: Surface expression of V5-tagged Na+-Pi IIa transporter in OK cells (immunofluorescence); type: cell-based, opossum; settings: OK cells expressing V5-tagged transporter, three hour treatment
Method: To assess the mechanism by which these agents altered phosphate transport, the surface expression of an epitope tagged sodium phosphate transporter, NaPi IIa-V5, was examined. An OK cell line stably expressing a VS-tagged Na+-Pi IIa transporter was generated as described elsewhere (Berndt et al., Pflugers Arch., 451:579-587 (2006)). The presence of the transporter on the cell surface of OK-N+-Pi-IIa-V5 cells was carried out using immunohistochemical methods and reagents described elsewhere (Berndt et al., Pflugers Arch., 451:579-587 (2006)).

[4] = tested on: opossum proximal tubular epithelial cells (OK); assay: OK cell Pi uptake assay; type: cell-based
Method: The OK cell Pi uptake assay was performed as described by Bowe et al. (Biochem Biophys Res Commun., 284:977-981 (2001)).

[5] = tested on: rats; assay: Chronic (72 hour) intraperitoneal administration in rats, serum phosphate and 1α,25(OH)2D; type: in vivo, rat; settings: chronic (72 hour) administration, i.p. every 12 hours for three days
Method: as §1
Chronic animal studies were performed to determine the effect of chronic (72 hour) administration of FGF-23(176-251) polypeptide (1.24 nmol/kg/hour, n=5) or vehicle (PBS+0.1% BSA, n=6) on serum phosphate and 1α, 25 (OH)2 D concentrations. Rats received an intraperitoneal injection of FGF-23(176-251) polypeptide in 0.5 mL of normal saline every 12 hours for three days. At the end of three days, the animals were anesthetized and a terminal blood sample was taken.

[6] = acute i.v. infusion of equimolar doses, rats
[7] = listed as full length recombinant FGF-23 polypeptide

Row | Molecule | FENa (fractional excretion of sodium), control clearance [1] | FEPi (fractional excretion of phosphate), control clearance [1] [%] | FENa (fractional excretion of sodium), experimental clearance [1] | FEPi (fractional excretion of phosphate), experimental clearance [1] | Effect on phosphate excretion (in words) [1, 6] | Amount of NaPiIIa-V5 detected on the cell surface (in words) [3] | Radiolabeled phosphorus uptake (in words) [4] | further results
1 | FGF-23(180-205): synthetic FGF-23 fragment, residues 180-205, SAEDDSERDPLNVLKPRARMTPAPAS, SEQ ID NO: 6 (listed as Homo sapiens) | 0.4±0.1% and 0.39 ± 0.11% | 10±2 | 1.0±0.2% and 1.01 ± 0.21 % | 20±2% | increases phosphate excretion significantly | – | – | Serum phosphate level post-injection ([2]; 0.2 nmoles i.p. at 0 and 8 hours, blood at 16 hours, p<0.01 vs pre-injection, in mg/dL (unit assumed)): 10.95±0.62; Serum phosphate level pre-injection ([2]; before injection, in mg/dL (unit assumed)): 14.64±0.51
2 | FGF-23(206-251): synthetic FGF-23 fragment, residues 206-251, SEQ ID NO: 5 (CSQELPSAEDNSPMASDPLGVVRGGRVNTHAGGTGPEGCRPFAKFI; listed as Homo sapiens) | 0.19 ± 0.04% | 22 ± 5 | 0.22 ± 0.05^ % | 29 ± 2^ % | did not increase | – | – | Effect on sodium excretion (in words) [1, 6]: did not increase
3 | B1 | – | – | – | – | – | significant decreases | directly inhibited | FENa (fractional excretion of sodium), control clearance ([1]; listed as FGF-23 Full Length): 0.26 ± 0.14%; FEPi (fractional excretion of phosphate), control clearance ([1]; listed as FGF-23 Full Length): 14 ± 3%; FENa (fractional excretion of sodium), control clearance [1, 7]: 0.3±0.1%; FEPi (fractional excretion of phosphate), control clearance [1, 7]: 14±3%; FENa (fractional excretion of sodium), experimental clearance ([1]; listed as FGF-23 Full Length): 0.76 ± 0.15 %; FEPi (fractional excretion of phosphate), experimental clearance ([1]; listed as FGF-23 Full Length): 32 ± 5 %; FENa (fractional excretion of sodium), experimental clearance [1, 7]: 0.7±0.2%; FEPi (fractional excretion of phosphate), experimental clearance [1, 7]: 32±5%; FE Ca after infusion ([1]; acute i.v. infusion 1.24 nmol/kg/hour): 10.0±2.3%; FE Ca before infusion ([1]; control period before infusion): 4.1±1.2%
4 | B2 | 0.3±0.1% and 0.27 ± 0.09% | 16±3 | 0.6±0.16% and 0.63 ± 0.16 % | 28±3% | increases phosphate excretion significantly | – | – | –
5 | B3 | 0.90±0.15% and 0.87 ± 0.15% | 15±2 | 1.21±0.17% | 33±2% | – | – | – | Serum phosphate concentration ([5]; vehicle 2.19±0.11 mM, p=0.062): 1.85 ± 0.12 mM; Serum 1α,25(OH)2D concentration ([5]; vehicle 114±7 pg/mL, p<0.05): 76 ± 11 pg/mL; Effect on serum Pi concentrations (in words) ([2]; given intraperitoneally): reduced
6 | B4 | 0.20±0.07% and 0.17 ± 0.07% | 14±3 | 0.80±0.17% and 0.76 ± 0.17 % | 26±3% | increases phosphate excretion significantly | significant decreases | directly inhibited | –
